Assays:
ThermoCas9 = assay: cell_activity; conditions: PAM NNNNCNAA; no cell killing observed
[1] = test system: Type I-B Cas complex (Clo1313_2969-2976; Cas3, Cas5, Cas8, Cas6, DevR) (Clostridium thermocellum); assay: cell_activity

Sequence: GCAUAUUUGUUCUGGUCAAG / GCATATTTGTTCTGGTCAAG / CTTGACCAGAACAAATATGC [ThermoCas9 sgRNA#1 spacer ; pyrF site, ThermoCas9 #1]
- activity (% cell killing) (ThermoCas9): 0

Sequence: UGAGAUUGUUGCGGAGUAUGUUGAAUCAUGGGGUGAA / TGAGATTGTTGCGGAGTATGTTGAATCATGGGGTGAA / TTCACCCCATGATTCAACATACTCCGCAACAATCTCA [Type I-B pyrF target spacer ; pyrF site, Type I-B, PAM TTA]
- activity (% cell killing) ([1]; PAM 5'-TTA, strain LL1586, chromosomal pyrF, 65.8% with native cas promoter): 99.8

Sequence: AUAAUGACAUUUAUGGUACUGUUGUGGUAAUAGACGA / CAGTTAATAATGACATTTATGGTACTGTTGTGGTAATAGACGA / TCGTCTATTACCACAACAGTACCATAAATGTCATTATTAACTG
- activity ([1]; PAM 5'-CAGTTA, plasmid interference, strong spacer promoter, spacer sequence from Table 1 pTY series, scale: fold decrease in transformation efficiency): 10

Sequence: CUUGAAGGCAUGAGGGUGUUUUAUGAAACUUGCAAAU / CTTGAAGGCATGAGGGTGTTTTATGAAACTTGCAAAT / ATTTGCAAGTTTCATAAAACACCCTCATGCCTTCAAG
- activity ([1]; no-PAM (GGC) control, target spacer gives 7 CFU/ug): 18000 CFU/µg DNA

— patent US11879134
